This passage reports MFI results from patent publication CN116478288A.

The target in test [1] is 食蟹猴CD47 (on overexpressing CHO-K1 cells) (cynomolgus monkey). The test is described as follows: flow cytometry, control human IgG on CHO-K1 overexpressing cynomolgus CD47 (PBS background 92.8).
In test [2] the target is 人源CD47 (on cells: hCD47-overexpressing CHO-K1; Raji) (human) (UniProt Q08722). The test is described as follows: flow cytometry, control human IgG on CHO-K1 overexpressing human CD47 (PBS background 139.0). (Flow cytometry measures light scatter and fluorescence of single cells or particles in a stream.)
Sequence of UniProt Q08722 (Q08722 19-323): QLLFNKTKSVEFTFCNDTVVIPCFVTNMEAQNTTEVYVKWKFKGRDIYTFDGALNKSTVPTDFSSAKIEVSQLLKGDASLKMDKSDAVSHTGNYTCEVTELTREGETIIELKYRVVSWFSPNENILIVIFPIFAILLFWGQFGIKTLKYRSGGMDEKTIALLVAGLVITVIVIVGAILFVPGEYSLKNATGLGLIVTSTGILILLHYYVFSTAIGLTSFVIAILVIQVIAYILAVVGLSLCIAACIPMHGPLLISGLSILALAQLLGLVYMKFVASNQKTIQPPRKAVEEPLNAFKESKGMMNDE

With human IgG (antibody), the MFI in test [1] turned out to be 71 MFI; in test [2], 101 MFI.
